Assay results published in patent US20190309034A1 (Boehringer Ingelheim, published 2019).

Experiments:
[1] = target: T1, Human membrane-bound BAFF (mbBAFF) (human, UniProt Q9Y275 1-285); assay: cell-based or functional assay
[2] = target: T2, Recombinant soluble trimeric human BAFF (furin-cleaved human BAFF 134-285) (human, UniProt Q9Y275 134-285); assay: cell-based or functional assay
[3] = target: T3, Recombinant soluble 60-mer human BAFF (His-HuBAFF 134-285) (human, UniProt Q9Y275 134-285); assay: cell-based or functional assay
[4] = target: T1, Human membrane-bound BAFF (mbBAFF); assay: cell-based or functional assay; remark: listed apart in the source
[5] = target: T2, Recombinant soluble trimeric human BAFF …; assay: cell-based or functional assay; remark: listed apart in the source
[6] = target: T2, Recombinant soluble trimeric human BAFF …; assay: SPR, antibody captured on Protein A/G, soluble trimeric BAFF flowed over, 1:1 Langmuir global fit, apparent affinity (at detection limit)
Protocol: Apparent binding affinities were evaluated using surface plasmon resonance where the antibodies were captured at different surface densities on a Protein A/G surface. Soluble trimeric BAFF at different concentrations were flowed over the captured antibody. Clinical reference antibodies (Reference 1 comprising SEQ ID NOS: 98 and 116) and Reference 2 comprising SEQ ID NOS: 99 and 117) were used as comparators.

[7] = target: T3, Recombinant soluble 60-mer human BAFF …; assay: cell-based or functional assay; remark: listed apart in the source
[8] = target: T2, Recombinant soluble trimeric human BAFF …; assay: cell-based or functional assay; remark: listed apart in the source

B1: Ch-13J0-18-1A4 (antibody, V domains shown)
VH: QVQLQQSGPEVVRPGASVKISCKAPDHIFSIHWMQWVRQRPGPGLEWIGEIFPGSGTTDYNEKFKGKATVTVDRGSRSAYMQFNSLTSEDSAVYFCASGAFDYWGQGTTLTVSS
VL: DIQMTQSPSSLSASLGERVSLTCRASQDIGNRLNWLQQEPDGTIKRLIYATSSLDSGVPKRFSGSRSGSDYSLTISSLESEDFVDYYCLQYASSPFTFGTGTKLEIK
- IC50 (neutralisation of mbBAFF activation of human BAFFR, fixed mbBAFF-CHO mixed with luciferase reporter BAFFR-CHO cells) [1]: 0.41 nM
- IC50 (neutralisation of soluble trimeric huBAFF activation of human BAFFR, luciferase reporter CHO cells) [2]: 0.16 nM
- IC90 (neutralisation of soluble trimeric huBAFF activation of human BAFFR, luciferase reporter CHO cells) [2]: 0.45 nM

B2: 1070A6B7 (antibody, V domains shown)
VH: QVPLQQPGAEMVRPGASMRLSCKASGYTFPGYWMHWVKQRPRQGLEWIAKIDPSDSETHYNQNFKDKATLTVDKYSNTVYMQLNSLTSEDSAVYYCANEGWDSLTKVWFGWWGQGTLVTVSA
VL: DVVMTQTPLSLPVSLGDQASISCRCSQSLVHSNGNTYLHWYLQKPGQSPKLLIYKVSDRFSGVPDRFSGSGSGTDFTLRISRVEADDLGVYFCSQSTHVPLTFGAGTKLELK
- Soluble 60-mer huBAFF (4 pM) Neutralization IC50 [3]: 20 pM
- Soluble 60-mer huBAFF (4 pM) Neutralization IC90 [3]: 56 pM
- Potent mbBAFF Neutralization IC50 [4]: 0.147 nM
- Potent mbBAFF Neutralization IC90 [4]: 1.06 nM
- Soluble trimeric huBAFF (50 pM) Neutralization IC50 [5]: 43 pM
- Soluble trimeric huBAFF (50 pM) Neutralization IC90 [5]: 677 pM

B3: 210D9B8 (antibody, V domains shown)
VH: QVQLQQPGTEFVKPGASVKLSCEASGYTFITYWMHWVKQRPGRGLEWIGGIDPNSGVIKYNEKFKSKATLTVDKPSSTAYMQLSSLTSEDSAVYYCARGEDLLIRTDAMDYWGQGTSVTVSS
VL: DIVMTQSQKFVSTTLGDRVSITCKASQSVGIAVAWYQQKPGHSPNLLIFSTSNRYTGVPDRFTGSGSGTDFTLTISDVQSEDLADYFCQQYSRYPRTFGGGTKLEIK
notes: Mouse lead antibody (hybridoma)
- Kd [6]: < 0.01 nM
- Soluble 60-mer huBAFF (4.2 pM) Neutralization IC90 [7]: 14 pM
- Soluble trimeric huBAFF (52 pM) Neutralization IC90 [8]: 156 pM

B4: 1002E8A6 (antibody, V domains shown)
VH: EVQLQQSGPELVKPGASVKMSCKASGYTITSYVMHWVKQKPGQGLEWIGYINPNNDGTKYNEKFKGKATLTSDKSSNTAYMELSSLTSEDSAVYYCARGDYSNYFYWYFDVWGAGTTVTVSS
VL: DIKMTQSPSSMYASLGERVTITCKASQDINSYLTWFQQKPGKSPETLIYRANRLVSGVPSRFSGSGSGQDYSLTISSLEYEDMGIYSCLQYDEFPYTFGGGTKLEIK
- Soluble 60-mer huBAFF (4 pM) Neutralization IC50 [3]: 29 pM
- Soluble 60-mer huBAFF (4 pM) Neutralization IC90 [3]: 79 pM
- Potent mbBAFF Neutralization IC50 [4]: 0.141 nM
- Potent mbBAFF Neutralization IC90 [4]: 2.09 nM
- Soluble trimeric huBAFF (50 pM) Neutralization IC50 [5]: 107 pM
- Soluble trimeric huBAFF (50 pM) Neutralization IC90 [5]: 824 pM

B5: 206G9A10 (antibody, V domains shown)
VH: QVQLQQPGAELVKPGASVKLSCKASGYTFSIFCIHWVQQRPGRGLEWIGRIDPSSGGTKYNEKFESKATLTVDKSSSTAYMQLSSLTSEDSAVYYCARGEDLLVRTDAMDYWGQGTSVTVSS
VL: DIVMTQSQKFMSTTVGDRVSITCKASQNAGAAVAWFQQKPGQSPKLLIYSASNRYTGVPDRFTGSGSGTDFTLTISNVQSEDLADYICQQYRSYPRTFGGGTKLEIK
notes: as for B3
- Kd [6]: < 0.01 nM
- Soluble 60-mer huBAFF (4.2 pM) Neutralization IC90 [7]: 0.2 pM
- Soluble trimeric huBAFF (52 pM) Neutralization IC90 [8]: 35.1 pM

B6: 227D3B11 (antibody, V domains shown)
VH: QVQLQQPGAELVKPGASVKLSCKASGYSFSTFFIHWIQQRPGRGLEWIGRIDPNSGGTKYNEKFESKATLTVDKPSSTAYMHLSSLTSEDSAVYYCARGEDLLIRTDAMDYWGQGTSVTVSS
VL: DIVMTQSQKIMSTTVGDRVSITCKASQNAGIDVAWFQQKPRQSPKLLIFSTSNRYTGVPDRFAGSGSGTDFTLTIYNVQSEDLADYFCLQYRSYPRTFGGGTKLEIK
notes: as for B3
- Kd [6]: < 0.01 nM
- Soluble 60-mer huBAFF (4.2 pM) Neutralization IC90 [7]: 1.6 pM
- Soluble trimeric huBAFF (52 pM) Neutralization IC90 [8]: 128 pM

B7: Ch-235F5B9 (antibody, V domains shown)
VH: QVQLQQPGAELVKPGASVKLSCKASGYSFSTFFIHWIQQRPGRGLEWIGRIDPNSGATKYNEKFESKATLTVDKPSSTAYMHLSSLTSEDSAVYYCARGEDLLIRTDALDYWGQGTSVTVSS
VL: DIVMTQSQKIMSTTVGDRVSITCKASQNAGIDVAWFQQKPRQSPKLLIFSKSNRYTGVPDRFAGSGSGTDFTLTIYNVQSEDLADYFCLQYRSYPRTFGGGTKLEIK
- IC50 (neutralisation of mbBAFF activation of human BAFFR, fixed mbBAFF-CHO mixed with luciferase reporter BAFFR-CHO cells) [1]: 0.19 nM
- IC50 (neutralisation of soluble trimeric huBAFF activation of human BAFFR, luciferase reporter CHO cells) [2]: 0.13 nM
- IC90 (neutralisation of soluble trimeric huBAFF activation of human BAFFR, luciferase reporter CHO cells) [2]: 0.27 nM

B8: 227D5A7 (antibody, V domains shown)
VH: QVQLQQPGAELVKPGASVKLSCKASGYTFSIFCVHWVQQRPGRGLEWIGRIDPSSGGTKYNEKFESKATLTVDKSSSTAYMQLSSLTPEDSAVYYCARGEDLLVRTDALDYWGQGSSVTVSS
VL: DIVMTQSQKFMSTTVGDRVSITCKASQNAGAAVAWFQQKPGQSPKLLIYSASNRYTGVPDRFTGSGSGTDFTLTISNVQSEDLADYICQQYRSFPRTFGGGTKLEIK
notes: as for B3
- Kd [6]: < 0.01 nM
- Soluble 60-mer huBAFF (4.2 pM) Neutralization IC90 [7]: 0.8 pM
- Soluble trimeric huBAFF (52 pM) Neutralization IC90 [8]: 56.8 pM

B9: 250E5A11 (antibody, V domains shown)
VH: QVQLQQPGTELVKPGASVKLSCKASGYTFSIFCIHWVQQRPGRGLEWIGRIDPSSGGTKYNERFENKATLTVDKSSSTAYMQLSSLTFEDSAVYYCARGEDLLVRTDAMDYWGQGTSVTVSS
VL: DIVMTQSQKFMSTTVGDRVSITCKASQNAGAAVAWFQQKPGQSPKLLIYSASNRYTGVPDRFTGSGSGTDFTLTITNVQSEDLADYICQQYRSFPRTFGGGTKLEIK
notes: as for B3
- Kd [6]: < 0.01 nM
- Soluble 60-mer huBAFF (4.2 pM) Neutralization IC90 [7]: 0.3 pM
- Soluble trimeric huBAFF (52 pM) Neutralization IC90 [8]: 97.5 pM

B10: 214G4B7 (antibody, V domains shown)
VH: QVQLQQPGAEFVKPGASVKLSCKASGYSFSTFCIHWVQQRPGRGLEWIGRIDPNSGGTKYNEKFESKATLTIDKPSSTAYVHLSSLTSEDSAVYYCARGEDLLIRTDAMDYWGQGTSVTVSS
VL: DIVMTQSQKFMSTTVGDRVSITCKASQNAGTAVAWFQQKPGQSPKLLIFSTSNRYTGVPDRFTGSGSGTDFTLTISNMQSEDLADYFCLQYRSYPRTFGGGTKLEIK
notes: as for B3
- Kd [6]: < 0.01 nM
- Soluble 60-mer huBAFF (4.2 pM) Neutralization IC90 [7]: 3 pM
- Soluble trimeric huBAFF (52 pM) Neutralization IC90 [8]: 296 pM

B11: 217H12A7 (antibody, V domains shown)
VH: QVQLQQPGAELVKPGASVKLSCKASGYTFSTFLIHWVQQRPGRGLEWIGRIDPNSGGTKYNEKFERKVTLTVDKPSSTAYMQLSSLTSEDSAVYYCARGEDLLLRTDAMDYWGQGTSVTVSS
VL: DIVMTQSQKFMSTTVGDRVSITCKASQNAGTAVAWFQQKPGQSPKLLIYSAFNRYTGVPDRFTGSGSGTDFTLTISNMQSEDLADYICQQYRSYPRTFGGGTKLEIK
notes: as for B3
- Kd [6]: < 0.01 nM
- Soluble 60-mer huBAFF (4.2 pM) Neutralization IC90 [7]: 13.4 pM
- Soluble trimeric huBAFF (52 pM) Neutralization IC90 [8]: 129 pM

B12: 1094C4E6 (antibody, V domains shown)
VH: EVQLQQSGAELVRPGASVKLSCTASGFNIKDDYMHWVKQTPEQGLEWIGRIDPAYGNGKYVPKFQDKATITADTSSNTAYLQLSSLTSEDTAVYYCARRYYAVSSVDYALDYWGQGTSVTVSS
VL: DIVMTQSHKFMSTSVGDRVTITCKASQDVATAVAWYQQKPGQSPKLLIYWASTRHTGVPDRFTGSGSGTDFTLTISNVQSEDLANYFCQQYSNYPYTFGGGTTLEIK
- Soluble 60-mer huBAFF (4 pM) Neutralization IC50 [3]: 4050 pM
- Soluble 60-mer huBAFF (4 pM) Neutralization IC90 [3]: 20900 pM
- Potent mbBAFF Neutralization IC50 [4]: 2.56 nM
- Potent mbBAFF Neutralization IC90 [4]: 175 nM
- Soluble trimeric huBAFF (50 pM) Neutralization IC50 [5]: 384 pM
- Soluble trimeric huBAFF (50 pM) Neutralization IC90 [5]: 1100 pM
